# T1: human PAC1 receptor extracellular domain (ECD) (human, UniProt P41586 24-153)
# T1 construct: also called PAC1 receptor ECD; PAC1 ECD
# T1 sequence: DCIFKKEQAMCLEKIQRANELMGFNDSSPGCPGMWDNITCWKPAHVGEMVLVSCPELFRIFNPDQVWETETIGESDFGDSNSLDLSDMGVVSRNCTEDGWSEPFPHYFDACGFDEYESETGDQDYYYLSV
# Tests used:
# [1] = molecular target: T2, human CGRP receptor (human CRLR / human RAMP1 heterodimer) (human, UniProt Q16602 23-461; O60894 27-148); experiment: yeast-displayed Fab, FACS, detergent-solubilized lysate of human CGRP receptor-expressing cells vs blank cells
# T2 construct: Full-length receptor: endogenous on SK-N-MC (HTB-10) cells in the cAMP assay; also called hCGRP receptor on SK-N-MC (HTB-10) cells; Human CGRP Receptor/AMID detergent-solubilized cell lysate
# T2 sequence (Q16602 23-461 limits assumed, chain 1 of 2): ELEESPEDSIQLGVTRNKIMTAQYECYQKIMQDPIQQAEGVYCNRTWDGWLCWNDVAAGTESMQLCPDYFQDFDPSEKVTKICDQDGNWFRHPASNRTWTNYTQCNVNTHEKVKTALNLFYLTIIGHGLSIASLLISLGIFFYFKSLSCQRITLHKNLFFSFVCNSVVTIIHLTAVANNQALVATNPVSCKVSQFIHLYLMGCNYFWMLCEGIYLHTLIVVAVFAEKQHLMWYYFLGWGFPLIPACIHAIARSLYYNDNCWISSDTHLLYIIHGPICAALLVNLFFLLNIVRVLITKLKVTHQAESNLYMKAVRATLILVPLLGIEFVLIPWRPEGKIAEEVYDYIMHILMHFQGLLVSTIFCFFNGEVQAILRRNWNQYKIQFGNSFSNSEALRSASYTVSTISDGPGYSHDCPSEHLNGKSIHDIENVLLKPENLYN
# T2 sequence (O60894 27-148 limits assumed, chain 2 of 2): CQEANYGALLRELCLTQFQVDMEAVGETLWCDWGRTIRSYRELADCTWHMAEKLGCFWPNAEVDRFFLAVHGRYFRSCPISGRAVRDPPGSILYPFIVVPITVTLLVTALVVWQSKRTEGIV
# [2] = molecular target: T3, human CGRP receptor extracellular domain (ECD) (human, UniProt Q16602 23-138; O60894 27-117); experiment: yeast-displayed Fab, FACS, 10 nM human CGRP receptor ECD
# T3 construct: also called CGRP receptor ECD; human CGRP receptor ECD
# T3 sequence (Q16602 23-138 limits assumed, chain 1 of 2): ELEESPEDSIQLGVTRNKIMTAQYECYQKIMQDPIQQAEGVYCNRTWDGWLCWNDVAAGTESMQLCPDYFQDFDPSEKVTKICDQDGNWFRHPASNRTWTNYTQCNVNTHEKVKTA
# T3 sequence (O60894 27-117 limits assumed, chain 2 of 2): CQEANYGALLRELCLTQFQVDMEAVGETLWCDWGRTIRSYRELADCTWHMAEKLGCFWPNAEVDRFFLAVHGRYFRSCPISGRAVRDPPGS
# [3] = molecular target: T3, human CGRP receptor extracellular …; experiment: yeast-displayed Fab, FACS, 1 nM human CGRP receptor ECD
# [4] = molecular target: T1, human PAC1 receptor extracellular …; experiment: yeast-displayed Fab, FACS, 10 nM PAC1 receptor ECD
# [5] = molecular target: T4, cynomolgus monkey CGRP receptor (cynomolgus monkey, UniProt A0A2K5VQ71 34-472); experiment: yeast-displayed Fab, FACS, detergent-solubilized lysate of cynomolgus CGRP receptor/HEK cells vs blank cells
# T4 construct: whole, on cells; Presented as detergent-solubilized lysate of HEK cells expressing the cynomolgus receptor; also called Cyno CGRP Receptor; Cynomolgus Monkey CGRP Receptor/HEK detergent-solubilized cell lysate
# T4 sequence (A0A2K5VQ71 entry or part of it): as the sequence (Q16602 23-461 limits assumed, chain 1 of 2) above, with D55N, L431V counted along it
# [6] = molecular target: T5, soluble CGRP receptor (extracellular domains of human CRLR and human RAMP1) (human, UniProt Q16602 23-133; O60894 26-117); experiment: SPR (Biacore T200), antibody captured by goat anti-human Fc, soluble CGRP receptor as analyte, 1:1 model
# T5 construct: the tag and the thrombin site are not described; also called soluble human CGRP receptor; CGRP receptor ECD
# T5 sequence (Q16602 23-133, chain 1 of 2): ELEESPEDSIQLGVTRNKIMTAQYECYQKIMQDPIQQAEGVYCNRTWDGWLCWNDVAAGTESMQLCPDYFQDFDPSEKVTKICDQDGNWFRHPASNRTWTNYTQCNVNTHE
# T5 sequence (O60894 26-117, chain 2 of 2): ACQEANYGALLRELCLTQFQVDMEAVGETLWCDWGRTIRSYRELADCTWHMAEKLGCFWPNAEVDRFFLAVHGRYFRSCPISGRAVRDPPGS
Binder,Human CGRP Receptor/Blank Cells Specific Binding [1] [ratio],Mutant vs. 4E4.2 Parent Specific Binding Ratio [1] [fold],Mutant vs. 4E4.2 Parent B/D Ratio [2] [fold],Normalized Binding Signal/Display Signal (B/D) [2] [ratio],Mutant vs. 4E4.2 Parent B/D Ratio [3] [fold],Normalized Binding Signal/Display Signal (B/D) [3] [ratio],Mutant vs. 4E4.2 Parent B/D Ratio [4] [fold],Normalized Binding Signal/Display Signal (B/D) [4] [ratio],Cyno CGRP Receptor/Blank Cells Specific Binding [5] [ratio],Mutant vs. 4E4.2 Parent Specific Binding Ratio [5] [fold],Kd [6] [nM],koff [6] [s⁻¹],kon [6] [M⁻¹ s⁻¹]
"anti-CGRP receptor variant 09, yeast-displayed Fab (Fab, V domains shown, also called Variant Ab ID 09) VH: QVQLVESGGGVVQPGRSLRLSCAASGFTFSSFGMHWVRQAPGKGLEWVAVISFAGEIDYYVDSVKGRFTISRDNSKNTLFLQMNSLRAEDTAVYYCARDRLNYYESSGYYHYKYYGMAVWGQGTTVTVSS VL: QSVLTQPPSVSAAPGQKVTISCSGSSSNIGNNYVSWYQQLPGTAPKLLIYDNNKRPSGIPDRFSGSKSGTSATLGITGLQTGDEADYYCGTWDSRLSAVVFGGGTKLTVLG",10.4,1.3,10.6,1.62,3,0.38,1.6,0.17,2.3,1.2,,,
"4E4 heavy chain D54A single-point alanine variant antibody (antibody, V domains shown, Recombinantly expressed as a monoclonal antibody) VH: QVQLVESGGGVVQPGRSLRLSCAASGFTFSSFGMHWVRQAPGKGLEWVAVISFAGSIKYSVDSVKGRFTISRDNSKNTLFLQMNSLRAEDTAVYYCARDRLNYYDSSGYYHYKYYGMAVWGQGTTVTVSS VL: QSVLTQPPSVSAAPGQKVTISCSGSSSNIGNNYVSWYQQLPGTAPKLLIYDNNKRPSGIPDRFSGSKSGTSTTLGITGLQTGDEADYYCGTWDSRLSAVVFGGGTKLTVLG",,,,,,,,,,,180,0.0026,15000
"4E4 light chain K67A single-point alanine variant antibody (antibody, V domains shown, Recombinantly expressed as a monoclonal antibody) VH: QVQLVESGGGVVQPGRSLRLSCAASGFTFSSFGMHWVRQAPGKGLEWVAVISFDGSIKYSVDSVKGRFTISRDNSKNTLFLQMNSLRAEDTAVYYCARDRLNYYDSSGYYHYKYYGMAVWGQGTTVTVSS VL: QSVLTQPPSVSAAPGQKVTISCSGSSSNIGNNYVSWYQQLPGTAPKLLIYDNNKRPSGIPDRFSGSASGTSTTLGITGLQTGDEADYYCGTWDSRLSAVVFGGGTKLTVLG",,,,,,,,,,,29,0.00046,16000
"anti-CGRP receptor variant 10, yeast-displayed Fab (Fab, V domains shown, also called Variant Ab ID 10) VH: QVQLVESGGGVVQPGRSLRLSCAASGFFFGSYGMHWVRQAPGKGLEWVAVISFAGEIEHYVDSVKGRFTISRDNSKNTLFLQMNSLRAEDTAVYYCARDRLNYYESSGYYHYKYYGMAVWGQGTTVTVSS VL: QSVLTQPPSVSAAPGQKVTISCSGSSSNIGNNYVSWYQQLPGTAPKLLIYDNNKRPSGIPDRFSGSKSGTSATLGITGLQTGDEADYYCGTWDSRLSAVVFGGGTKLTVLG",20.7,2.6,13.3,2.04,3.3,0.4,0.9,0.1,3,1.6,,,
"4E4 light chain Y33A single-point alanine variant antibody (antibody, V domains shown, Recombinantly expressed as a monoclonal antibody; also called L-Y33A) VH: QVQLVESGGGVVQPGRSLRLSCAASGFTFSSFGMHWVRQAPGKGLEWVAVISFDGSIKYSVDSVKGRFTISRDNSKNTLFLQMNSLRAEDTAVYYCARDRLNYYDSSGYYHYKYYGMAVWGQGTTVTVSS VL: QSVLTQPPSVSAAPGQKVTISCSGSSSNIGNNAVSWYQQLPGTAPKLLIYDNNKRPSGIPDRFSGSKSGTSTTLGITGLQTGDEADYYCGTWDSRLSAVVFGGGTKLTVLG",,,,,,,,,,,11,0.00027,24000
"4E4 light chain R95A single-point alanine variant antibody (antibody, V domains shown, Recombinantly expressed as a monoclonal antibody) VH: QVQLVESGGGVVQPGRSLRLSCAASGFTFSSFGMHWVRQAPGKGLEWVAVISFDGSIKYSVDSVKGRFTISRDNSKNTLFLQMNSLRAEDTAVYYCARDRLNYYDSSGYYHYKYYGMAVWGQGTTVTVSS VL: QSVLTQPPSVSAAPGQKVTISCSGSSSNIGNNYVSWYQQLPGTAPKLLIYDNNKRPSGIPDRFSGSKSGTSTTLGITGLQTGDEADYYCGTWDSALSAVVFGGGTKLTVLG",,,,,,,,,,,43,0.00077,18000
"4E4 heavy chain K113A single-point alanine variant antibody (antibody, V domains shown, Recombinantly expressed as a monoclonal antibody) VH: QVQLVESGGGVVQPGRSLRLSCAASGFTFSSFGMHWVRQAPGKGLEWVAVISFDGSIKYSVDSVKGRFTISRDNSKNTLFLQMNSLRAEDTAVYYCARDRLNYYDSSGYYHYAYYGMAVWGQGTTVTVSS VL: QSVLTQPPSVSAAPGQKVTISCSGSSSNIGNNYVSWYQQLPGTAPKLLIYDNNKRPSGIPDRFSGSKSGTSTTLGITGLQTGDEADYYCGTWDSRLSAVVFGGGTKLTVLG",,,,,,,,,,,33,0.0006,18000

# Next, values leading:
Human CGRP Receptor/Blank Cells Specific Binding [1] [ratio],Mutant vs. 4E4.2 Parent Specific Binding Ratio [1] [fold],Mutant vs. 4E4.2 Parent B/D Ratio [2] [fold],Normalized Binding Signal/Display Signal (B/D) [2] [ratio],Mutant vs. 4E4.2 Parent B/D Ratio [3] [fold],Normalized Binding Signal/Display Signal (B/D) [3] [ratio],Mutant vs. 4E4.2 Parent B/D Ratio [4] [fold],Normalized Binding Signal/Display Signal (B/D) [4] [ratio],Cyno CGRP Receptor/Blank Cells Specific Binding [5] [ratio],Mutant vs. 4E4.2 Parent Specific Binding Ratio [5] [fold],Kd [6] [nM],koff [6] [s⁻¹],kon [6] [M⁻¹ s⁻¹],Binder
9.5,1.2,22,3.38,11,1.36,1.5,0.16,5.3,2.8,,,,"anti-CGRP receptor variant 11, yeast-displayed Fab (Fab, V domains shown, also called Variant Ab ID 11) VH: QVQLVESGGGVVQPGRSLRLSCAASGFWFDTFGMHWVRQAPGKGLEWVAVISFAGEDTHYVDSVKGRFTISRDNSKNTLFLQMNSLRAEDTAVYYCARDRLNYYESYGYYGYHYYGMAVWGQGTTVTVSS VL: QSVLTQPPSVSAAPGQKVTISCSGSRSNIGRYSVSWYQQLPGTAPKLLIYENMFRPRGIPDRFSGSKSGTSATLGITGLQTGDEADYYCGTWDYRMQAVVFGGGTKLTVLG"
,,,,,,,,,,28,0.00054,20000,"wild-type 4E4 anti-CGRP receptor monoclonal antibody (antibody, human IgG2, lambda, V domains shown, also called WT; 4E4 Ab) VH: QVQLVESGGGVVQPGRSLRLSCAASGFTFSSFGMHWVRQAPGKGLEWVAVISFDGSIKYSVDSVKGRFTISRDNSKNTLFLQMNSLRAEDTAVYYCARDRLNYYDSSGYYHYKYYGMAVWGQGTTVTVSS VL: QSVLTQPPSVSAAPGQKVTISCSGSSSNIGNNYVSWYQQLPGTAPKLLIYDNNKRPSGIPDRFSGSKSGTSTTLGITGLQTGDEADYYCGTWDSRLSAVVFGGGTKLTVLG"
14.6,1.8,9.8,1.51,2.9,0.35,1,0.11,4.8,2.5,,,,"anti-CGRP receptor variant 13, yeast-displayed Fab (Fab, V domains shown, also called Variant Ab ID 13) VH: QVQLVESGGGVVQPGRSLRLSCAASGFTFSSFGMHWVRQAPGKGLEWVAVISFDGSIKYSVDSVKGRFTISRDNSKNTLFLQMNSLRAEDTAVYYCARDRLNYYESSGYYHYKYYGMAVWGQGTTVTVSS VL: QSVLTQPPSVSAAPGQKVTISCSGSRSNIGRRTVSWYQQLPGTAPKLLIYDNNKRPSGIPDRFSGSKSGTSATLGITGLQTGDEADYYCGTWDSRLSAVVFGGGTKLTVLG"
13.5,1.7,2.2,0.33,1,0.12,0.7,0.08,2.2,1.1,,,,"anti-CGRP receptor variant 14, yeast-displayed Fab (Fab, V domains shown, also called Variant Ab ID 14) VH: QVQLVESGGGVVQPGRSLRLSCAASGFTFSSFGMHWVRQAPGKGLEWVAVISFDGSIKYSVDSVKGRFTISRDNSKNTLFLQMNSLRAEDTAVYYCARDRLNYYESSGYYHYKYYGMAVWGQGTTVTVSS VL: QSVLTQPPSVSAAPGQKVTISCSGSSSNIGNNYVSWYQQLPGTAPKLLIYDNNKRPSGIPDRFSGSKSGTSATLGITGLQTGDEADYYCGTWDSWHRVVTFGGGTKLTVLG"
11.9,1.5,2.7,0.42,1.3,0.16,0.9,0.1,4.2,2.2,,,,"anti-CGRP receptor variant 15, yeast-displayed Fab (Fab, V domains shown, also called Variant Ab ID 15) VH: QVQLVESGGGVVQPGRSLRLSCAASGFTFSSFGMHWVRQAPGKGLEWVAVISFDGSIKYSVDSVKGRFTISRDNSKNTLFLQMNSLRAEDTAVYYCARDRLNYYESSGYYHYKYYGMAVWGQGTTVTVSS VL: QSVLTQPPSVSAAPGQKVTISCSGSSSNIGNNYVSWYQQLPGTAPKLLIYDNNKRPSGIPDRFSGSKSGTSATLGITGLQTGDEADYYCGTWDWWRKAVIFGGGTKLTVLG"
